This is an account of results in paper PMC6351565, “Mechanism of IRSp53 inhibition by 14-3-3” (Nature Communications, 2019).

Positions count from the first letter of the chain named. Numbers in names are those of the source.

The target of one data set is T1, pIRSp53FS (human (from the printed UniProt entry), UniProt Q9UQB8-4 1-521, S519C, natively phosphorylated in HEK293T cells; fluorescein maleimide / rhodamine maleimide on C230 and C519).
T1 construct: IRSp53 (BAIAP2), isoform-4, UniProt Q9UQB8-4, full length, S519C; Expressed and purified as m4; also called IRSp53 FRET sensor; phosphorylated IRSp53 (mutant S519C)
T1 sequence (looked up): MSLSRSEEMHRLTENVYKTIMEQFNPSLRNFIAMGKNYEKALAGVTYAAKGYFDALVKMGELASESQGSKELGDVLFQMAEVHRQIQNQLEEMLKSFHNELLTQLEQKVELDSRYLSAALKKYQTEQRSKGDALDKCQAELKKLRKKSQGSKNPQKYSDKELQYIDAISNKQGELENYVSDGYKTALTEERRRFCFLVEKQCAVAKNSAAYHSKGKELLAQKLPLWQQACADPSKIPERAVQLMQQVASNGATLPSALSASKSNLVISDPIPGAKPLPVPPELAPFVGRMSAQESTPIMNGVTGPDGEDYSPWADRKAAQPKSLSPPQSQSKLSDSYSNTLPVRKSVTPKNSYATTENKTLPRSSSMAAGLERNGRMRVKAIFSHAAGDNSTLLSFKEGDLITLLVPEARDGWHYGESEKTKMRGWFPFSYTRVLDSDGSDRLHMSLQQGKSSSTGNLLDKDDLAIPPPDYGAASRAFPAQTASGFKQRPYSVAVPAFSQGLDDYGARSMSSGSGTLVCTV
In words: other fluorescence titration; intramolecular FRET sensor (fluorescein/rhodamine on C230 and C519 of IRSp53); Cdc42, Eps8 and/or 14-3-3θ titrated into the sensor, also back to back; 20 °C; 25 mM Tris-HCl pH 7.5, 150 mM NaCl, 1 mM MgCl2, 5% glycerol, 0.1 mM TCEP; observed Kd (Kobs) from the fits. The following applies: both partners purified.

A further data set deals with T2, pM234FS (human (from the printed UniProt entry), UniProt Q9UQB8-4 1-521, T340A | T360A | S366A | S519C, fluorescein / rhodamine labels as in pIRSp53FS (C230 and C519)).
T2 construct: IRSp53 (BAIAP2), isoform-4, UniProt Q9UQB8-4, full length, FRET sensor (S519C) with T340A/T360A/S366A; also called modified FRET sensor T340A/T360A/S366A; source: serum-starved HEK293T, purified, labelled
T2 sequence (looked up): T1 sequence (looked up) with T340A, T360A, S366A
The description is as above. The settings on record: both partners purified.

The target in the next data set is T3, 2xFLAG-Eps8 (human, UniProt Q12929 1-822).
T3 construct: Eps8, human, UniProt Q12929, full length; also called FLAG-tagged Eps8
T3 sequence (Q12929 whole entry): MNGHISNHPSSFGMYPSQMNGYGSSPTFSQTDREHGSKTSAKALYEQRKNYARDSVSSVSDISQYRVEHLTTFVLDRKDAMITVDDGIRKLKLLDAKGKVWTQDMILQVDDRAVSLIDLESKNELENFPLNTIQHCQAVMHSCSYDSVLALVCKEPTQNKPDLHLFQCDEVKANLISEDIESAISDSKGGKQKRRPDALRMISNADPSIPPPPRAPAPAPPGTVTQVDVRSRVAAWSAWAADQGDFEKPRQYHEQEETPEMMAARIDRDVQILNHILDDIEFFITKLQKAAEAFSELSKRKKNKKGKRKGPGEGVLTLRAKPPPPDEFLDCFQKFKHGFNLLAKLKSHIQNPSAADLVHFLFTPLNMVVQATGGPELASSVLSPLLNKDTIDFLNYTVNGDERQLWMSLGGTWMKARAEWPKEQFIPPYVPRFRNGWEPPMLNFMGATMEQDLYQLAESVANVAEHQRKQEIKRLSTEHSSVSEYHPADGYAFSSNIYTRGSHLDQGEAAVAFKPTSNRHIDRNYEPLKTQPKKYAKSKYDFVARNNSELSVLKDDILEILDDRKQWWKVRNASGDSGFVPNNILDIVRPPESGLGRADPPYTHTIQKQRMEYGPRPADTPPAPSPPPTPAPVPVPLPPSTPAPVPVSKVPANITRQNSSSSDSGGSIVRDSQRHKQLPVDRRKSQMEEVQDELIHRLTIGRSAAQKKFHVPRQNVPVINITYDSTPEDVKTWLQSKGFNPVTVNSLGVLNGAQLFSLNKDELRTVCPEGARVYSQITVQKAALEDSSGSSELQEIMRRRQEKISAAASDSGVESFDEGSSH
The data set can be described thus: pull-down; anti-Flag magnetic beads with or without the FLAG-Eps8/pIRSp53 complex; 14-3-3θ detected. The settings on record: both partners purified.

The target in data set [1] is T4, FLAG-Eps8/pIRSp53 complex (human | human (from the printed UniProt …, UniProt Q12929 1-822)); Q9UQB8-4 1-521, natively phosphorylated in HEK293T cells (as m4)).
T4 construct: Eps8, human, UniProt Q12929, full length; IRSp53 (BAIAP2), isoform-4, UniProt Q9UQB8-4, full length; source: formed from purified 2xFLAG-Eps8 (HEK293T) and purified pIRSp53 (serum-starved HEK293T)
T4 sequence (Q12929 whole entry, canonical isoform, one chain of several): as the sequence (Q12929 whole entry) above
The description is as above. The settings on record: both partners purified.

Data set [2] deals with the molecule itself. In words: crystal structure; 14-3-3θ pre-incubated with singly (2.5:1) or doubly (0.6:1) phosphorylated IRSp53 peptides; hanging drop, 18 °C; resolution 2.0 to 2.9 Å.

For orientation: Kd means the equilibrium constant for the complex coming apart. Lower therefore signals higher affinity.

B1: GMPPNP-Cdc42 (constitutively active mutant G12V) (domain or fragment)
chain: not shown
notes: Cdc42, human, residues 1-178, G12V; Loaded with GMPPNP; also called GNPPNP-Cdc42 (G12V mutant); source: E. coli BL21(DE3), purified
B1 returned an equilibrium dissociation constant (Kd) with pIRSp53FS of 19.1 µM. In addition, the binding result with pM234FS is given as “binds”.

B2: IRSp53-FLAG (wild type), natively phosphorylated (natural protein, human (from the printed UniProt entry), UniProt Q9UQB8-4 1-521, looked up)
chain: T1 sequence (looked up) with C519S
modifications: phosphorylated in HEK293T cells at S325, T340, T360, S366 and a residue within 452SSST455, most likely S454 (mass spectrometry of the purified 14-3-3-binding-competent fraction)
notes: also called pIRSp53; WT IRSp53-FLAG; source: HEK293T, transfected, in lysate; not shown: FLAG, C-terminal, kept
With B2, in the data set with 2xFLAG-Eps8, the binding result is recorded as “binds”.

B3: 14-3-3θ (natural protein, human)
chain: MEKTELIQKAKLAEQAERYDDMATCMKAVTEQGAELSNEERNLLSVAYKNVVGGRRSAWRVISSIEQKTDTSDKKLQLIKDYREKVESELRSICTTVLELLDKYLIANATNPESKVFYLKMKGDYFRYLAEVACGDDRKQTIDNSQGAYQEAFDISKKEMQPTHPIRLGLALNFSVFYYEILNNPELACTLAKTAFDEAIAELDTLNEDSYKDSTLIMQLLRDNLTLWTSDSAGEECDAAEGAEN
notes: 14-3-3θ, human, UniProt P27348; also called 14-3-3 theta; 14-3-3τ
For B3, the binding result in data set [1] and in data set [2] was “binds” throughout. Also, in the data set with pIRSp53FS, binding was characterised by a dissociation constant (Kd) of 0.079 µM.
